{"source": "IntAct's records for PubMed 12403843", "parents": {"B1": {"name": "Vitamin D3 receptor (Homo sapiens), P11473 (parent)", "chain": "MEAMAASTSLPDPGDFDRNVPRICGVCGDRATGFHFNAMTCEGCKGFFRRSMKRKALFTCPFNGDCRITKDNRRHCQACRLKRCVDIGMMKEFILTDEEVQRKREMILKRKEEEALKDSLRPKLSEEQQRIIAILLDAHHKTYDPTYSDFCQFRPPVRVNDGGGSHPSRPNSRHTPSFSGDSSSSCSDHCITSSDMMDSSSFSNLDLSEEDSDDPSVTLELSQLSMLPHLADLVSYSIQKVIGFAKMIPGFRDLTSEDQIVLLKSSAIEVIMLRSNESFTMDDMSWTCGNQDYKYRVSDVTKAGHSLELIEPLIKFQVGLKKLNLHEEEHVLLMAICIVSPDRPGVQDAALIEAIQDRLSNTLQTYIRCRHPPPGSHLLYAKMIQKLADLRSLNEEHSKQYRCLSFQPECSMKLTPLVLEVFGNEIS"}}}
{"variants_of": "B1", "conditions": "with ncoa1_human NCOA1, Q15788"}
{"variant": "E420K", "effect of a mutation on the interaction": "disrupting interaction strength"}
{"variants_of": "B1", "conditions": "with med1_human MED1, Q15648"}
{"variant": "E420K", "effect of a mutation on the interaction": "disrupting interaction strength"}
